Measured values published in the nanobody polyreactivity screen of Harvey et al. (2022).

Test: yeast display, Sf9 membrane polyspecificity reagent, FACS + sequencing; frameworks hold sequencing errors
Summary of the method: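 After 36–48 hours of galactose induction, yeast (Saccharomyces cerevisiae BJ5465) displaying a synthetic nanobody library were stained at 4 °C for 1 hour with 10% biotinylated, detergent-solubilized Sf9 membrane reagent. Streptavidin microbeads enriched the stained cells before FACS sorting into low and high (top ~1%) gates on anti-HA and streptavidin fluorescence. Each clone's polyreactivity label reflects its gate of origin.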

Sequence: QVQLVESGGGLVQAGGSLRLSCAASGSTFKGYTMGWYRQAPGKEREFVATITFSDGSTYYADCVKGRFTISRDNAKNTVYLQMNSLKPAVTAVYYCNVDSPIGYDYWGQGTQVTVSS
- polyreactivity (PSR sort gate): low polyreactivity

Sequence: QVQLVESGGGLVQAGGSLRLSCAASGSTFKINAMGWYRQAPGKERELVAAIRSRGGGTYYADSVKGRFTISRDNAKNTVYLQMNSLKPEDTAVYYCAATRRYHFDYWGQGTQVTVSS
- polyreactivity (PSR sort gate): high polyreactivity

Sequence: QVQLVESGGGLVQAGGSLRLSCAASGSTFKIYAMGWYRQAPGKERELVARITGRGGSTYYADSVKGRFTISRDNAKNTVYLQMNSLKPEDTAVYYCAARVYTFYYDLHKRYYWGQGTQVNVSS
- polyreactivity (PSR sort gate): high polyreactivity

Sequence: QVQLVESGGGLVQAGGSLRLSCAASGSTFKKYAMGWYRQAPGKERELVAAITWTGGSTYYADSVKGRFTISRDNAKNTVYLQMNSLKPEDTAVYYCAAYKTYAVKYYWGQGTQVTVSS
- polyreactivity (PSR sort gate): high polyreactivity

Sequence: QVQLVESGGGLVQAGGSLRLSCAASGSTFKNNAMGWYRQEPGKEREFVASISKRGGSTYYADSVKGRFTISRDNAKNTVYLQMNSLKPEDTAVDYCAKTYWSYGWSHGDYGEFDYWGQGTQVTVSS
- polyreactivity (PSR sort gate): high polyreactivity

Sequence: QVQLVESGGGLVQAGGSLRLSCAASGSTFKPNAMGWYRQAPGKERELVAGISGRGGSTNYADSVKGRFTISRDNAKNTVYLQMNRLKPEDTAVYYCAKDAYPLWLTRYNYWGQGTQVTVSS
- polyreactivity (PSR sort gate): low polyreactivity

Sequence: QVQLVESGGGLVQAGGSLRLSCAASGSTFKPYAMGWYRQAPGKERELVAAITWSSGSTYYADSVKGRFTISRDNAKNTVYLQMNSLKPEDTAVYYCARDRYSVFEYDYWGQGTQVTVSS
- polyreactivity (PSR sort gate): low polyreactivity

Sequence: QVQLVESGGGLVQAGGSLRLSCAASGSTFKPYPMGWYRQAPGKERELVADITGGGSTNYADSVKGRFTNSRDNAKNTVYLEMNSLKPEDTGVYYCNATYLLKYRYYDSTRYDYWGQGTQVTVSS
- polyreactivity (PSR sort gate): low polyreactivity

Sequence: QVQLVESGGGLVQAGGSLRLSCAASGSTFKQYAMGWYRQAPGKERELVADINVRDGGTYYADSVKGRFTISRDNAKNTVYLQMNSLKPEDTAVYYCAKDYYACYWEMDYWGQGTQVTVSS
- polyreactivity (PSR sort gate): low polyreactivity

Sequence: QVQLVESGGGLVQAGGSLRLSCAASGSTFKQYAMGWYSQAPGKERELVAAISLSGSRTYYADSVKVRFTISRDNAKNTVYLQMKSLIPVDTAVYYCAAELRSSAGWLYDYWGQGTQVTVSS
- polyreactivity (PSR sort gate): high polyreactivity

Sequence: QVQLVESGGGLVQAGGSLRLSCAASGSTFKRNAMGWYRQAPGKERELVAAISWRGTSTYYADSVKGRFTISRDNAKNTVYLQMNSLKPEDTAVYYCAADRGSSVRYGYWGQGTQVTVSS
- polyreactivity (PSR sort gate): high polyreactivity

Sequence: QVQLVESGGGLVQAGGSLRLSCAASGSTFKRNVMGWYRQAPGKERELVAAISRSTTSTYYADSVKGRFTISRDNAKNTVYLQMNSLKPEDTAVYYCATPHRYRVDYWGQGTQVTVSS
- polyreactivity (PSR sort gate): high polyreactivity

Sequence: QVQLVESGGGLVQAGGSLRLSCAASGSTFKRYAMGWYRQAPGKEMELVAAISTRGSTYYADSVKGRFTISRDNAKNTVYLQMNRLKPEETAVYYCNADVGAWAWYTRYDYWGQGTQVTVSS
- polyreactivity (PSR sort gate): low polyreactivity

Sequence: QVQLVESGGGLVQAGGSLRLSCAASGSTFKRYAMGWYRQAPGKERELVADISRGVRTYYADSVKGRFTISRDNAKNTVYLQMNSLKPEDTAVYYCATKYHRNTYEYEYWGQGTQVTVSS
- polyreactivity (PSR sort gate): high polyreactivity

Sequence: QVQLVESGGGLVQAGGSLRLSCAASGSTFKRYAMGWYRQAPGKERELVASISSGGSTNYADSVKGRFTISRDNAKNTVYLQMNSLKPEDTAVYYCAVSYRSFRYYWERYYSWGQGTQVTVSS
- polyreactivity (PSR sort gate): high polyreactivity

Sequence: QVQLVESGGGLVQAGGSLRLSCAASGSTFKRYDMGGYRQAPGKECEFVAGISSRGSRTYYADSVTGRFTISRDNAKNSVYFKMNILKPEDSAVYYCAVSGNHVSPPYGFWGQGTQVNVSS
- polyreactivity (PSR sort gate): high polyreactivity

Sequence: QVQLVESGGGLVQAGGSLRLSCAASGSTFKSYAMGWYRQAPGKERELVAAINWSGGSTYYADSVKGRFTISRDNAKNTVYLQMTSLKPEDTAVYYCNALYAVRSYDSWGQGTQVTVSS
- polyreactivity (PSR sort gate): high polyreactivity

Sequence: QVQLVESGGGLVQAGGSLRLSCAASGSTFKSYTMGWYRQAPGKERELVAAITSSGRTNYADSVKGRFTISRDNAKNTVYLQMNSLKPEDTAVYYCAARWYYYPLLYDYWGQGTQVTVSS
- polyreactivity (PSR sort gate): low polyreactivity

Sequence: QVQLVESGGGLVQAGGSLRLSCAASGSTFKTYAMGWYRQAPGKEREFVAAINWRGTSTYYADSVKGRFTISRDNAKNTVYLQMNSLKPEDTAVYYCAAQRYGYGYQWYDHWGQGTQVTVSS
- polyreactivity (PSR sort gate): high polyreactivity

Sequence: QVQLVESGGGLVQAGGSLRLSCAASGSTFKTYSMGWYRQAPGKERELVAAISGNGGSTYYADSVKGRFTISRDNAKNTVYLQMNILIPEDTAVYYCAAKRRRHFSRGYEYWGQGSQVTVSS
- polyreactivity (PSR sort gate): high polyreactivity

Sequence: QVQLVESGGGLVQAGGSLRLSCAASGSTFKVYAMGWYRQAPGKEMELDAAISRSGGRTYYADSVKGRFTISRDNAKNTVYLQMNSLKPEDTAVYYCNRDYTYSQGHYSGSYDYWGQGTQVTVSS
- polyreactivity (PSR sort gate): high polyreactivity

Sequence: QVQLVESGGGLVQAGGSLRLSCAASGSTFKVYAMGWYRQAPGKERELVAVISGGGRTNYADSVKGRFTISRDNAKNTVYLQMNSLKPEDTAVYYCAALGPYGSARRKYGYWGQGTQVTVSS
- polyreactivity (PSR sort gate): high polyreactivity

Sequence: QVQLVESGGGLVQAGGSLRLSCAASGSTFKVYAMGWYRQAPGKESELVATISKSGSTYADSVKGRFTISRDNAKNTVYLQMNSLKPEDTAVYYCARVKYSGVVYKYDYWGQGTQVTVSS
- polyreactivity (PSR sort gate): high polyreactivity

Sequence: QVQLVESGGGLVQAGGSLRLSCAASGSTFKWYAMGLYRQAPGKERELVAAIDSRGGSTYYADSVKGRFTISRDNAKNTVFLQMISLKPEDTAVYYCNIYPHYSFQSHNYWGQGTQVTVSS
- polyreactivity (PSR sort gate): high polyreactivity

Sequence: QVQLVESGGGLVQAGGSLRLSCAASGSTFKYNAMGWYRQAPGKERELVARISWSGGSTYYADSVKGRFTISRDNAKNSVYLQMNSLKPEDTAVYYCAARSWWRGYSFYYWGQGTQVTVSS
- polyreactivity (PSR sort gate): high polyreactivity

Sequence: QVQLVESGGGLVQAGGSLRLSCAASGSTFKYYAMGWYRQAPGKERELVARISIRGGSTYYADSVKGRFTISRDNAKNTVYLQMNSLKPEDTAVYYCAAVGYFGGYRYYYWGQGTQVTVSS
- polyreactivity (PSR sort gate): high polyreactivity

Sequence: QVQLVESGGGLVQAGGSLRLSCAASGSTFKYYAMGWYRQAPGKERELVATITWSGTSTNYADSVKGRFTISRDNAKHTVYLQMHSLKPEDTAVYYCAARSKRRNYDYWGQGTQVTVSS
- polyreactivity (PSR sort gate): high polyreactivity

Sequence: QVQLVESGGGLVQAGGSLRLSCAASGSTFKYYAMVWYRQAPGKERELVAAISRSGGRTYYADSVKGRFTISRDNAKNTVYLQMNSLKPEDTAVSLCNAVVARVNVRGTPAFDYWGQGTQVTVSS
- polyreactivity (PSR sort gate): high polyreactivity

Sequence: QVQLVESGGGLVQAGGSLRLSCAASGSTFKYYGMGWYRQAPGKERELVAAITSGGSTYDADSVKGRFTISRDNAKTTVYLQRNSLKPEDTAVYYCNTQYYLYYPADYDYWGQGTQVTVSS
- polyreactivity (PSR sort gate): low polyreactivity

Sequence: QVQLVESGGGLVQAGGSLRLSCAASGSTFLDYAMGWYRQAPGQERELVAAITSVGGTYADSVKGRFTISRDKAKNTVYLQKNSLKPEDTAGYYCAADADFWYYVVHRGSTFDYSGQGTQVTVSS
- polyreactivity (PSR sort gate): low polyreactivity

Sequence: QVQLVESGGGLVQAGGSLRLSCAASGSTFLDYTMGWYRHAPGKERELVAVIYYRAGSTYYADSVKGRFTISRDNAKNTVYLQMNSLKPEDTAVYYCNADYYNFWRRRRYLWYESWGQGTQVTVSS
- polyreactivity (PSR sort gate): low polyreactivity

Sequence: QVQLVESGGGLVQAGGSLRLSCAASGSTFLGYTMGWYRQAPGKERELVAAISRRGSSTYYADSVKGRFTISRDNAKNTVYLQMNSLKPEDTAVYYCAAYATSFRDGYWGQGTQVTVSS
- polyreactivity (PSR sort gate): high polyreactivity
